Assay results reported in patent publication US20240417482A1 (CONCEPT TO MEDICINE BIOTECH, published 2024).
Read-outs that look alike come from different tables or passages of the source.

T1: human OX40 protein (human, UniProt P43489 29-214, limits assumed)
T1 construct: Coated protein in ELISA
T1 sequence (looked up): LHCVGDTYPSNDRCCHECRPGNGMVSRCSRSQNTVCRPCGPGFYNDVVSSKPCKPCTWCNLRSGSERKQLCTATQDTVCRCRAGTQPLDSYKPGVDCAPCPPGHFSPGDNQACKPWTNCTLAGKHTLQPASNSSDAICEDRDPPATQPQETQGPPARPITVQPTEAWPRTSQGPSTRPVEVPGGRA

T2: mouse 4-1BB-His protein (mouse, UniProt P20334 24-187)
T2 construct: Recombinant His-tagged protein; also called mouse 4-1BB antigen; not shown: His tag
T2 sequence (looked up): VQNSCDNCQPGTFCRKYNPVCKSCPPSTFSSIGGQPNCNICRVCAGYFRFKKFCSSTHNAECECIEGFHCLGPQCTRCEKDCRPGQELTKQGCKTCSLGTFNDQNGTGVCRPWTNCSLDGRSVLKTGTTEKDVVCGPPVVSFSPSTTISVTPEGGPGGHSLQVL

T3: cynomolgus 4-1BB-His protein (cynomolgus, UniProt A9YYE7 24-186)
T3 construct: Recombinant His-tagged protein; also called cyno 4-1BB antigen; not shown: His tag
T3 sequence: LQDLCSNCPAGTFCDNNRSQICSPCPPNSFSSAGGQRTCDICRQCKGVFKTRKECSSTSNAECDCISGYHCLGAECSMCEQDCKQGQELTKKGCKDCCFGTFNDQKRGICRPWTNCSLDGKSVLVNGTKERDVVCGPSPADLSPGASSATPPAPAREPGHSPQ

B1: B16-V2 humanized antibody (VHH)
VHH: EVQLVESGGGLVQPGGSLRLSCAASGFTFSYYAIGWFRQAPGKEREGVSCISSSDGSTYYADSVKGRFTISRDNSKNTLYLQMNSLRAEDTAVYYCATDTTTRCPIWSYYVESDYWGQGTLVTVSS
notes: Humanized VHH; also called B16 VHH-V2
B2: B16 chimeric mAb (VHH)
VHH: QVQLVESGGGLVQPGGSLRLSCAASGFTLDYYAIGWFRQAPGKEREGVSCISSSDGSTYYADSVKGRFTISRDNAKNTVYLQMNSLKPEDTAVYYCATDTTTRCPIWSYYVESDYWGQGTQVTVSS
notes: Alpaca VHH tested as 'chimeric mAb'
B3: B210-V3 humanized antibody (VHH)
VHH: EVQLVESGGGLVQPGGSLRLSCAASGLTFSYYAIGWFRQAPGKEREGVSCISSSGRSTNYADSVKGRFTISRDNSKNTLYLQMNSLRAEDTAVYYCATDTTTRCPIWSNYVESDYWGQGTLVTVSS
notes: Humanized VHH; also called B210 VHH-V3
B4: B210 chimeric mAb (VHH)
VHH: EVQLVESGGGLVQPGGSLRLSCAASGLSLDYYAIGWFRQAPGKEREGVSCISSSGRSTNYADSVKGRFTISRDNAKNTVYLQMNSLKPEDTADYYCATDTTTRCPIWSNYVESDYWGQGTQVTVSS
notes: as for B2
B5: B125 chimeric mAb (VHH)
VHH: QVQLVESGGGLVQPGGSLRLSCAASGFAFSDYAIGWFRQAPGKEREGVSCISSSDGSTYYADSVKGRFTISRDNAKNTVYLQMNSLKPEDTAVYYCATDTTTRCPIWSYYVESDYWGQGTQVTVSS
notes: as for B2
B6: B210-V2 humanized antibody (VHH)
VHH: EVQLVESGGGLVQPGGSLRLSCAASGFTFSYYAIGWFRQAPGKEREGVSCISSSGRSTNYADSVKGRFTISRDNSKNTLYLQMNSLRAEDTAVYYCATDTTTRCPIWSNYVESDYWGQGTLVTVSS
notes: Humanized VHH; also called B210 VHH-V2
B7: B125-V2 humanized antibody (VHH)
VHH: EVQLVESGGGLVQPGGSLRLSCAASGFAFSDYAIGWFRQAPGKEREGVSCISSSDGSTYYADSVKGRFTISRDNSKNTLYLQMNSLRAEDTAVYYCATDTTTRCPIWSYYVESDYWGQGTLVTVSS
notes: Humanized VHH; also called B125 VHH-V2
B8: B164 chimeric mAb (VHH)
VHH: EVQLVESGGGLVQAGGSLRLSCAASGSIFSYMFWYRQPQGKQREYVAHITSGGRTNYADSVTGRFTISRGNNDNTMYLQMNNLKPEDTAVYYCAADDAVYTDRTYWGQGTQVTVSS
notes: as for B2
B9: B31-V3 humanized antibody (VHH)
VHH: QVQLVESGGGLVQPGGSLRLSCAASGDIFSIMFWYRQAPGKQREYVAHITSNGRTNYADSVTGRFTISRDNNKNTLYLQMNSLRAEDTAVYYCAADDATNTRTYWGQGTLVTVSS
notes: Humanized VHH captured on a Protein A chip; also called B31 VHH-V3
B10: B31-V2 humanized antibody (VHH)
VHH: QVQLVESGGGLVQPGGSLRLSCSASGDIFSIMFWYRQAPGKQREYVSHITSNGRTNYADSVTGRFTISRDNSKNTLYLQMNSLRAEDTAVYYCAADDATNTRTYWGQGTLVTVSS
notes: Humanized VHH expressed in 293F cells and captured on a Protein A chip; also called B31 VHH-V2
B11: B31-V6 humanized antibody (VHH)
VHH: QVQLVESGGGLVQPGGSLRLSCSASGDIFSIMFWYRQAPGKQREYVAHITSNGRTNYADSVTGRFTISRDNSKNTLYLQMNSLRAEDTAVYYCARDDATNTRTYWGQGTLVTVSS
notes: Humanized VHH captured on a Protein A chip; also called B31 VHH-V6
B12: B31-V4 humanized antibody (VHH)
VHH: QVQLVESGGGLVQPGGSLRLSCAASGDIFSIMFWYRQAPGKQREYVAHITSNGRTNYADSVTGRFTISRDNSKNTMYLQMDSLRAEDTAVYYCAADDATNTRTYWGQGTLVTVSS
notes: Humanized VHH captured on a Protein A chip; also called B31 VHH-V4
B13: B31-V5 humanized antibody (VHH)
VHH: QVQLVESGGGLVQPGGSLRLSCAASGDIFSIMFWYRQPQGKQREYVAHITSNGRTNYADSVTGRFTISRDNNKNTLYLQMDSLRAEDTAVYYCAADDATNTRTYWGQGTLVTVSS
notes: Humanized VHH captured on a Protein A chip; also called B31 VHH-V5

What was measured:
human 4-1BB-His protein [1] = molecular target: T4, human 4-1BB-His protein (human, UniProt Q07011 24-186); experiment: SPR, Biacore T200, antibody captured on Protein A chip, human 4-1BB-His as analyte
T4 construct: Recombinant His-tagged protein; also called human 4-1BB-his tag; recombinant 4-1BB protein; not shown: His tag
Description: The binding of the humanized antibodies to recombinant human 4-1BB protein (human 4-1BB-his tag) was tested by Biacore using a capture method. […] A serial dilution of human 4-1BB-his tag protein was injected over captured antibody for 30 s at a flow rate of 10 μl/min. The antigen was allowed to dissociate for 360 s. All the experiments were carried out on a Biacore T200.

human CD40 protein = molecular target: T5, human CD40 protein (human, UniProt P25942 21-193); experiment: ELISA, plate coated with human CD40 0.5 µg/ml
T5 construct: Coated protein in ELISA
Description: (§1) Briefly, microtiter plates were coated with human CD40 protein or human OX40 protein at 0.5 μg/ml in PBS, 100 μl/well at 4° C. overnight, then blocked with 150 μl/well of 1% BSA. […] The plates were washed with PBS/Tween and then incubated with Anti-Human IgG (H&L) (GOAT) Antibody Peroxidase Conjugated for 30 mins at 37° C. After washing, the plates were developed with TMB substrate and analyzed by spectrophotometer at OD 450 nm.

human OX40 protein = molecular target: T1, human OX40 protein; experiment: ELISA, plate coated with human OX40 0.5 µg/ml
Description: as §1

human 4-1BB-His protein [2] = molecular target: T4, human 4-1BB-His protein; experiment: ELISA, plate coated with human 4-1BB-His, anti-human IgG-HRP
Description: Briefly, microtiter plates were coated with human 4-1BB-His protein at 0.5 μg/ml in PBS, 100 μl/well at 4° C. overnight, then blocked with 150 μl/well of 1% BSA. […] The plates were washed with PBS/Tween and then incubated with Anti-Human IgG (H&L) (GOAT) Antibody Peroxidase Conjugated for 30 mins at 37° C. After washing, the plates were developed with TMB substrate and analyzed by spectrophotometer at OD 450 nm.

mouse 4-1BB-His protein [3] = molecular target: T2, mouse 4-1BB-His protein; experiment: ELISA, plate coated with mouse 4-1BB-His, anti-human IgG-HRP
Description: (§2) Microtiter plates were coated with mouse 4-1BB-His protein at 0.5 μg/ml in PBS, 100 μl/well at 4° C. overnight, then blocked with 150 μl/well of 1% BSA. […] The plates were washed with PBS/Tween and then incubated with Anti-Human IgG (H&L) (GOAT) Antibody Peroxidase Conjugated for 30 mins at 37° C. After washing, the plates were developed with TMB substrate and analyzed by spectrophotometer at OD 450 nm.

[4] = molecular target: T3, cynomolgus 4-1BB-His protein; experiment: ELISA, plate coated with cynomolgus 4-1BB-His, anti-human IgG-HRP
Description: Microtiter plates were coated with cynomolgus 4-1BB-His protein at 0.5 μg/ml in PBS, 100 μl/well at 4° C. overnight, then blocked with 150 μl/well of 1% BSA. […] The plates were washed with PBS/Tween and then incubated with Anti-Human IgG (H&L) (GOAT) Antibody Peroxidase Conjugated for 30 mins at 37° C. After washing, the plates were developed with TMB substrate and analyzed by spectrophotometer at OD 450 nm.

human 4-1BB-His protein [5] = molecular target: T4, human 4-1BB-His protein; experiment: SPR, Biacore T200, antibody captured on Protein A chip, human 4-1BB-His as analyte; remark: listed apart in the source
Description: A serial dilution of human 4-1BB-his tag protein was injected over captured antibody for 30 s at a flow rate of 30 μl/min. The antigen was allowed to dissociate for 360 s. All the experiments were carried out on a Biacore T200. Data analysis was carried out using the Biacore T200 evaluation software.

[6] = molecular target: human 4-1BB expressed on cells (human) (UniProt Q07011); experiment: flow cytometry on HEK293-4-1BB cells, PE anti-human IgG, MFI
mouse 4-1BB-His protein [7] = molecular target: T2, mouse 4-1BB-His protein; experiment: ELISA, plate coated with mouse 4-1BB-His 0.5 µg/ml
Description: as §2

T5 sequence (P25942 21-193 limits assumed): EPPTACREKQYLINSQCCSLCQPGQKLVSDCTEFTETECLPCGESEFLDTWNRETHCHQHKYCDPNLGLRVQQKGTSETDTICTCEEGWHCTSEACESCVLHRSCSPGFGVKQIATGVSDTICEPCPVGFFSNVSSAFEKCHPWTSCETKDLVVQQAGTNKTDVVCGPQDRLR
human 4-1BB expressed on cells (human), sequence (Q07011 24-255): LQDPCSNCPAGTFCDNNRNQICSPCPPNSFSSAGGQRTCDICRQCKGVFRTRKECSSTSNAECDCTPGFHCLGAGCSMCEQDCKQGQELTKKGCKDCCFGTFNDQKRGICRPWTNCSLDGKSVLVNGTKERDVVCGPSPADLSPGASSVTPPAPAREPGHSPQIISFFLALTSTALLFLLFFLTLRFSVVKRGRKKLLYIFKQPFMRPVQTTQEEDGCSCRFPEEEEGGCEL

Binder | Kd (human 4-1BB-His protein [1]) | koff (human 4-1BB-His protein [1]) | kon (human 4-1BB-His protein [1]) | binding result (human CD40 protein) | binding result (human OX40 protein) | EC50 (human 4-1BB-His protein [2]) | EC50 (mouse 4-1BB-His protein [3]) | EC50 [4] | Kd (human 4-1BB-His protein [5]) | koff (human 4-1BB-His protein [5]) | kon (human 4-1BB-His protein [5]) | EC50 (read off the curve) [6] | binding result (mouse 4-1BB-His protein [7])
B1 | 1930 nM | 0.0898 s⁻¹ | 46500 M⁻¹ s⁻¹ |  |  |  |  |  |  |  |  |  | 
B2 |  |  |  | no binding | no binding | 10.6 ng/mL | 16.3 ng/mL | 19.5 ng/mL | 21.5 nM | 0.00739 s⁻¹ | 343000 M⁻¹ s⁻¹ |  | 
B3 | 2560 nM | 0.0408 s⁻¹ | 15900 M⁻¹ s⁻¹ |  |  |  |  |  |  |  |  |  | 
B4 |  |  |  | no binding | no binding | 2.51 ng/mL | 402 ng/mL | 3.91 ng/mL | 90.4 nM | 0.00352 s⁻¹ | 38900 M⁻¹ s⁻¹ |  | 
B5 |  |  |  | no binding | no binding | 2.06 ng/mL | 4.42 ng/mL | 3.54 ng/mL | 21 nM | 0.00818 s⁻¹ | 390000 M⁻¹ s⁻¹ | 3 nM | 
B6 | 765 nM | 0.041 s⁻¹ | 53700 M⁻¹ s⁻¹ |  |  |  |  |  |  |  |  |  | 
B7 | 3070 nM | 0.0266 s⁻¹ | 8670 M⁻¹ s⁻¹ |  |  |  |  |  |  |  |  |  | 
B8 |  |  |  | no binding | no binding | 5.2 ng/mL |  | 4.81 ng/mL | 0.526 nM | 0.000546 s⁻¹ | 1.04e+06 M⁻¹ s⁻¹ |  | no binding
B9 | 13.6 nM | 0.00716 s⁻¹ | 526000 M⁻¹ s⁻¹ |  |  |  |  |  |  |  |  |  | 
B10 | 13.1 nM | 0.0068 s⁻¹ | 517000 M⁻¹ s⁻¹ |  |  |  |  |  |  |  |  |  | 
B11 | 6.58 nM | 0.00156 s⁻¹ | 237000 M⁻¹ s⁻¹ |  |  |  |  |  |  |  |  |  | 
B12 | 4.74 nM | 0.00545 s⁻¹ | 1.15e+06 M⁻¹ s⁻¹ |  |  |  |  |  |  |  |  |  | 
B13 | 4.97 nM | 0.00646 s⁻¹ | 1.3e+06 M⁻¹ s⁻¹ |  |  |  |  |  |  |  |  |  | 
